{
  "source": "patent US5804445",
  "about": "“High affinity mutants of nuclear factor-interleukin 6 and methods of use therefor” (Board of Regents, The University of Texas System)",
  "molecules": {"B1": {"name": "APRE M6 (32P) (dsDNA)", "DNA 1": "GATCCACCACAGTTGTGATTTCACAACCTGACCA", "DNA 2": "TGGTCAGGTTGTGAAATCACAACTGTGGTGGATC"}},
  "key": {"[1]": {"biological_target": "NF-IL6 TCD WT (tryptic core domain, aa 266-345) (UniProt P17676)", "sequence (P17676 other isoform, or with tags, fused parts or gaps)": "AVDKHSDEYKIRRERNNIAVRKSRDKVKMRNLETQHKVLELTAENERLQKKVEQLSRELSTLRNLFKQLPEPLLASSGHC", "assay": "EMSA", "conditions": "CITED Brasier and Kumar 1994; cited from earlier work"}, "[2]": {"system": "NF-IL6 full length (24-345)", "assay": "EMSA", "conditions": "CITED Brasier and Kumar 1994; indistinguishable from TCD WT; cited from earlier work"}, "[3]": {"biological_target": "NF-IL6 TCD S271A (UniProt P17676 SEQ:2-81, S271A)", "sequence (P17676 other isoform, or with tags, fused parts or gaps S271A | S271A S271A)": "as the sequence (P17676 other isoform, or with tags, fused parts or gaps) above, with S6A counted along it", "assay": "EMSA; binding specificity indistinguishable from the other TCD peptides", "conditions": "tags: untagged, initiator Met removed; chain copies: 2 inferred; label: 32P fill-in; BamHI/BglII overhangs"}, "[4]": {"biological_target": "NF-IL6 TCD V267A (UniProt P17676 SEQ:2-81, V267A)", "sequence (P17676 other isoform, or with tags, fused parts or gaps V267A | V267A V267A)": "as the sequence (P17676 other isoform, or with tags, fused parts or gaps) above, with V2A counted along it", "assay": "EMSA; binding specificity indistinguishable from the other TCD peptides", "conditions": "tags: untagged, initiator Met removed; chain copies: 2 inferred; label: 32P fill-in; BamHI/BglII overhangs"}},
  "data": [
    {"molecule": "APRE DNA (site used in cited work)", "values": [
      {"measurement": "Kd", "setting": "[1]", "value": 36, "unit": "nM"},
      {"measurement": "Kd", "setting": "[2]", "value": 36, "unit": "nM"}
    ]},
    {"molecule": "B1", "values": [
      {"measurement": "binding result", "setting": "[3]", "value": "binds"},
      {"measurement": "binding result", "setting": "[4]", "value": "binds"}
    ]}
  ]
}
